The text below walks through data of US20220251167A1 (published 2022).

The target of the experiment is T1, DNAJB1-PRKACA fusion protein peptide on HLA-A*68:02 (human).
T1 peptide: EIFDRYGEEV
The experiment is described as follows: multimer staining. The text has this: Jurkat cells were engineered to express the FLC-P8R-4 TCR.

B1: P9R-4 (TCR)
alpha TRAV16*01 TRAJ4*01 CDR3: CALDMFSGGYNKLIF
beta TRBV15*01 TRBJ2-7*01 CDR3: CATSRVKTSGGYEQYF
For B1, the binding result is recorded as “recognises”.
